Measured values from patent publication US20240400703A1 (Genmab, published 2024).
Changes are numbered by the printed parent chain. Names may count otherwise. “And” between values parts separate entries of the source, which are not always exact repeats. Identical values can stand only once.

Key:
[1] = molecular target: T1, human OX40 with mouse CRD4 (human with mouse CRD4, UniProt P43489 29-277); assay: flow cytometry, transfected ExpiCHO-S cells, MFI at 5 µg/mL as % of IgG1-CD134-A4453
T1 construct: on ExpiCHO-S cells; also called OX40-CRD4mm; Shuffle 4
T1 chain: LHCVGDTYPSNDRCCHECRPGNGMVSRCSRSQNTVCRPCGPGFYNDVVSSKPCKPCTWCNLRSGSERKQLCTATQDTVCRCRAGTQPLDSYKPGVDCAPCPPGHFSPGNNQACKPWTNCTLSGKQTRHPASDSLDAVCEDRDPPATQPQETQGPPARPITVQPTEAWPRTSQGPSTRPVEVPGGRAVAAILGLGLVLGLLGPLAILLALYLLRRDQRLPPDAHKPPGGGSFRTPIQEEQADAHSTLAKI
Method: (§1) The four shuffle constructs, as well as wild-type human and mouse OX40 were transiently expressed on ExpiCHO-S cells using the ExpiFectamine™ CHO Transfection Kit (ThermoFisher, cat. no. A29131), according to the manufacturer's protocol. […] Next, cells were washed twice in FACS buffer 1, were resuspended in a 30 μL solution of viability marker ToPro-3 (Invitrogen, cat. no. T3605, diluted 1:10,000) in FACS buffer 1 supplemented with 2 mM EDTA, and were analyzed on an iQue Screener Plus (Intellicyt Corporation, USA). Data were analyzed using FlowJo software and visualized using GraphPad Prism.

[2] = molecular target: T2, human OX40 with mouse CRD2 (human with mouse CRD2, UniProt P43489 29-277); assay: as above
T2 construct: on ExpiCHO-S cells; also called OX40-CRD2mm; Shuffle 2
T2 chain: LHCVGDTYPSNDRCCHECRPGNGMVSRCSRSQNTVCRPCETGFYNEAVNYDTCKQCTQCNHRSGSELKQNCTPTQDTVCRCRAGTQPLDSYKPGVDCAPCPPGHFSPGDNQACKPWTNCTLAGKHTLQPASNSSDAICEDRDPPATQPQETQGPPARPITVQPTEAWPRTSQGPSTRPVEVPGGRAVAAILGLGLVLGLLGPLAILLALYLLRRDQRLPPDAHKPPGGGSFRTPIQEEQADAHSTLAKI
Method: as §1

[3] = molecular target: T3, human OX40 with mouse CRD3 (human with mouse CRD3, UniProt P43489 29-277); assay: as above
T3 construct: on ExpiCHO-S cells; also called OX40-CRD3mm; Shuffle 3
T3 chain: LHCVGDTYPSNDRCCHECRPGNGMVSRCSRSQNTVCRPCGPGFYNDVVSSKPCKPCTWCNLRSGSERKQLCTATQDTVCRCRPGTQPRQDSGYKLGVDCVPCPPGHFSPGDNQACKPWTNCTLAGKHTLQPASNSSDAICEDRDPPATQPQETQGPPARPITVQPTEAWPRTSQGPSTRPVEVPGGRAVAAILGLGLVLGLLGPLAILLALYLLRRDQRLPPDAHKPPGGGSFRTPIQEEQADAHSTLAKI
Method: as §1

[4] = molecular target: T4, human OX40 expressed on cells (human, UniProt P43489 29-277); assay: flow cytometry, activated human CD4+ and CD8+ T cells, 2 µg/mL sOX40L
T4 construct: also called CD134; TNFRSF4
T4 sequence: T1 chain with N109D, S122A, Q125H, R127L, H128Q, D132N, L134S, V137I
Method: (§2) Stimulated PBMCs were pelleted, resuspended in FACS buffer 2 (DPBS with 2% heat-inactivated FBS [Sigma-Aldrich, cat. no. F7524] and 2 mM EDTA [Sigma-Aldrich, cat. no. 03690]), and seeded (100,000 cells/well) in round-bottom 96-well plates (VWR International GmbH, cat. no. 734-197). […] Next, cells were washed twice in FACS buffer, and incubated with 30 μL of the antibody panel described in Table 11 diluted in FACS buffer 2 containing 1:1,500 Fixable Viability Stain eFluor 780 at 4° C. for 20 min, protected from light. The cells were subsequently washed twice with 120-150 μL FACS buffer 2 and measured on a BD FACSCelesta flow cytometer using a BD High Throughput sampler and subsequent analysis was done using FlowJo software.

[5] = molecular target: T4, human OX40 expressed on cells; assay: flow cytometry, activated human CD8+ T cells, with 2 µg/mL sOX40L, n=3
Method: as §2

[6] = molecular target: T4, human OX40 expressed on cells; assay: flow cytometry, loss of sOX40L (2 µg/mL) binding to activated human CD4+ T cells; competitor sOX40L
Method: as §2

[7] = molecular target: T4, human OX40 expressed on cells; assay: flow cytometry, activated human CD8+ T cells, without sOX40L, n=3
Method: as §2

[8] = molecular target: T4, human OX40 expressed on cells; assay: flow cytometry, loss of sOX40L (2 µg/mL) binding to activated human CD8+ T cells; competitor sOX40L
Method: as §2

[9] = molecular target: T5, mouse OX40 expressed on ExpiCHO-S cells (mouse, UniProt P47741 20-272); assay: flow cytometry, transfected ExpiCHO-S cells, gMFI (PE)
T5 construct: full-length entry; also called OX40mm; wild-type mouse OX40
T5 sequence: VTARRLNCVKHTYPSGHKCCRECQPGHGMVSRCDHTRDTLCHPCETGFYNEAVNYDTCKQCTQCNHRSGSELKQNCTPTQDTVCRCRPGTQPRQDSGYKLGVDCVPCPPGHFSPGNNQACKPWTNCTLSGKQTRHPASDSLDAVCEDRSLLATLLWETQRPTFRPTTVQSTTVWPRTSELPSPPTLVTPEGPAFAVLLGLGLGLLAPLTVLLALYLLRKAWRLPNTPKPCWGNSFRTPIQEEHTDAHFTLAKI

binding result [1]: binds
binding result [2]: binds
binding result [3]: binds
fold change of EC50 in the presence of sOX40L against its absence [4]: ~3 fold
EC50 [5]: 0.038 µg/mL and 0.254 nM
IC50 [6]: 0.086 µg/mL
EC50 [7]: 0.017 µg/mL and 0.114 nM
IC50 [8]: 0.084 µg/mL
binding result [9]: no binding (tested: 50 µg/mL)
B1: IgG1-CD134-003-HC6LC2-P329R-E345R (antibody)
heavy: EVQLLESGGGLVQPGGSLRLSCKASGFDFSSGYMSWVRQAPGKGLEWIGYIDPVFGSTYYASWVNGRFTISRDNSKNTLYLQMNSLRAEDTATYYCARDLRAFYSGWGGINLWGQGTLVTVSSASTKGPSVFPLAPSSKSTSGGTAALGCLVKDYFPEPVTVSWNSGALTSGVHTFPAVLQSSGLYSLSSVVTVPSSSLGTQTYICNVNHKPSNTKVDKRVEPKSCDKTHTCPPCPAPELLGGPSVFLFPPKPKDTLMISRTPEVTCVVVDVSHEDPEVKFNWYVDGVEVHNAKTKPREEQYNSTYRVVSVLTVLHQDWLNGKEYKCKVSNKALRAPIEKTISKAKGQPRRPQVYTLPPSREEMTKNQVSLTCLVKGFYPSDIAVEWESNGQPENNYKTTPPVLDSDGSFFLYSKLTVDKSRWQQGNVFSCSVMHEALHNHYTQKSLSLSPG
light: AAVLTQSPSSLSASVGDRVTITCQSSQIVVNNNFLSWYQQKPGKAPKLLIYDASNLASGVPDRFSGSGSGTDFTFTISSLQPEDIATYYCLGGYDDDAENAFGGGTKVEIKRTVAAPSVFIFPPSDEQLKSGTASVVCLLNNFYPREAKVQWKVDNALQSGNSQESVTEQDSKDSTYSLSSTLTLSKADYEKHKVYACEVTHQGLSSPVTKSFNRGEC
notes: humanized; human IgG1 with P329R and E345R (Eu numbering), kappa; also called IgG1-CD134-003-HC6LC2-RR
